# In the nanobody polyreactivity screen of Harvey et al. (2022):
# Assay: yeast display, Sf9 membrane polyspecificity reagent, FACS + sequencing; frameworks hold sequencing errors
# In short: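 A synthetic nanobody library was expressed on Saccharomyces cerevisiae BJ5465 by galactose induction for 36–48 hours. The library was stained for 1 hour at 4 °C with 10% biotinylated, detergent-solubilized Sf9 membrane reagent and enriched with streptavidin microbeads before FACS. Low and high (top ~1%) gates were set on anti-HA fluorescence for expression and streptavidin fluorescence for reagent binding, and each polyreactivity label reflects the gate of origin.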
row,Sequence,polyreactivity (PSR sort gate)
1,QDQLVESGGGLVQAGGSLRLSCAASGRTFSRYTMGWYRQAPGKERELVAAISKRGGSTYYADSVKGRLTISRDNAKNTVYLQMNSLKPADTAVYYCNAYGLVGLDGVKMYYWGQGTQVTVSS,high polyreactivity
2,QVQLVESGGGLVQAGGSLRLSCAASGSIFSFYMGWYRQAPGKERELVAAISSRGGSTYYADSVKGRFTISRDNAKNTVYLQMISLKPEDTAVYYCAAAGGGKVSYRDYDYWGQGTQVTVSS,high polyreactivity
3,QVQLVESGGGLVQAGGSLRLSCAASGFTITQYGMGWYRQAPGKERELVADITYSGGDTYYADSVKGRFTISRDNAKNTVYLQMNSLKPEDTAVYFCAAYSWKYCFVWGYVYWGQGTQVTVSS,high polyreactivity
4,QVQIVESGGGLVQARCSLRLSFSASGYTFNNYAKGWYRQAPGTERELVAAISSSGGSTYFADSVKGRFTISRDNAKNTVYVQMNSLKPEDTAVYYCAARPFGLGDYRGYYYWGQGTQVTVSS,low polyreactivity
5,QVQLVESRGVLVQAGGSLRLSCAASGLTFGGNAKGWYRQAPGKERELVAAISWSDDTTDYADSVKGRFTISRDNAKNTVYLQMNSLKPEDTAVYYCAARLPFEHVDYWGQGTQVTVSS,low polyreactivity
6,QVQILESGVCLVQARGSLRLSCAASGRTFRSNAMGWYRQAPGKERDLVAAITSSGGRTYYADSVKGRFTISRDNAKNTVYLQMNILKPEDTAVYYCNAVLRQYYRAYDYWGQGTQGTVSS,high polyreactivity
7,QVQLVESGGGLVQAGGSLRLSCAASGFTLGRYAMGWYRQAPGKERELVAAITGRGGTTYYADSVKGRFRISRDNAKNTVYLQMNSLKPEDTAVYYCAADTKLSYQWFDYWGQGTQVTVSS,high polyreactivity
8,QVQLVESGGRLVQAGGSLRLSCAASGSIFYTYAMGWYRQAPGKEMELVAAITYRVGSTYYADSVKGRFTISRDNAKNTVYLQMNSLKPEDTAVYYCNADKGGHVRHYDYWGQGTQVTVSS,low polyreactivity
9,QVQLVESGGGLVQAGGSLRLSCAASGIIFIKYAMGWYRQAPGKERELVAAITSGGSTHYADSVKGRFTISRDNAKNTVYLQMNSLKPEDTAVYYCNADILRHVAYFKDRYQAGSYWGQGTQVTVSS,low polyreactivity
10,QVHLVEAGVGLVQAGGSLRVSCAASGFTFCRYAMVWYRQAPGKERELVAAIRYSGSSTYYADSVKGRFTISRDNAKNTVYLQMNSLKPEDTAVYYCAKRYYGNDYWGQGTQVTVSS,high polyreactivity
11,QVQLVESGGGLVQAGGSLRLSCAASGGIFVRYAMGWYRQAPGKERELVAAISYSGGSTYYADSVKGRFTISRDNAKNTVYLQLNSLKPEDTAVYYCAAYVTGRYDWGQVTQVTVSS,high polyreactivity
12,QVQLVESGGGLVQAGGSLRLSCASSGSIFFLYAMGWYRQAPGKERELVAAITGSGSRTYYADSVKGRFTISRDNEKNTVYLHMNSLKPEYTAVYYCAARYYGAYGKQPRARYGYWGKGTQVTVSS,high polyreactivity
13,QVQLVESGGGLVQAGGSLRLSCSASGRTFANYAMGWYRQAPGKERELVAAISSGGNTYYADSVKGRCTISRDNAKNTVYLQMNSLKPEDTAVYYCAAQPYYYFDEYTQYDYWGQGTQVTVSS,high polyreactivity
14,QVQLVESGGGLVQAGGSLRLSCAASGRIFRFYAMGWSSQAPGKERELVAAISTSGRTNYADSVKGRFTISRDNAKNTVYLQMNSLKPEDTAVYYCAAGTVLQGWSGAYGYWGQGTQVTVSS,high polyreactivity
15,QVQLVESGGGLVQAGGSLRLSCAASGRTFNQYAMGWYRQAPGKVRELVAAISRPTGRTYYADSVKGRFTISRDNAKNTVYLQMNSLKPEDTAVYYCAKADNRSPVDNGFDYWGQVTQVTVSS,high polyreactivity
16,QVQLVESGGGLVQAGGSLRLSCGASGITFVYYTMGWYRQAPGKERELVAAISKNGGSTYYADSVKGRFTISRDNAKNTVYLQMNSLKPEYTAFSYCAAEEGYRWVRYNYWGQGTQVTVSS,high polyreactivity
17,QVQLVESGGGLVQAGGSLRLSCAASGFTFSGYDMGWSRQAPGKERELVAGISSGGVSTTYADSVKGRFTISRDNAKNTVYLQMNSRKPEDTAVYYCNAEWTSFDWGQGTQVTVSS,low polyreactivity
18,QVQLVESGVGLVQAGGSLRLSSAASGFTFVSNDMGWYRQAPGKERELVAAIRYRGGDTYYADSVKGRFTISRDNAKNTVYLQMNSMKPEDTAVYYCAVDVATYTAGWYYHGYDYWGQGTQVTVSS,low polyreactivity
19,QVQLVESGGGLVQAGGSLRLSCAASGRIFGQNAMGWYRQAPGKERELVAAITGSGGRTYYADSVKGRFTISRDNAKNTVYLQMNSQKPEDTAVYYCAVRVTSYYRTMDYWGQGTQVTVSS,low polyreactivity
20,QVQLVESGGGLVQAGGSLRLSCAASGRIFRHNAMGWYRQAPGKERELVAAISGGGTTYYADSVKGRFTISRDNAKNTVYLQMNSVKPEDTAVYYCAARRRGSVGVGYAYPYNYWGQGTQVTVSS,high polyreactivity
21,QVQLVESGGGLVQAGGSLRLSCASSGSIFFEYAMVWYRQAPGKERELDASINRGGGSTYYADSVKGRFTISRDNAKNTVYLQMNSLKPEDTAVYYCAAQWKYRQSYLDYYWGQGTQVTVSS,low polyreactivity
22,QVQLVESGGGLVQAGGSLRLSCAASGSTFYTYTAMGWYRQAPGKERELVAAITWRGGSTYYADSVKGRFTISRDNAKNTVYLQLNSLKPEDTAVYYCNTVHYYRDYDYWGQGTQVTVSS,high polyreactivity

row,Sequence,polyreactivity (PSR sort gate)
1,QVQLVESGGGLVQAGGSLRLSCAASGRISVVNARGWYRQAPGKERELVAAIRRASTNYADSVKGRFTISRDIAKNTVYLQMNILKPEDTAVYYCAARVYGINIFEYWGQGTQVTVSS,high polyreactivity
2,QVHLVESGGGLVQAGGSLRLSCAASGRIFAGYARGWYRQAPGKERELVAAISDGGTTNYADSVKGRFTISRDNAKNTVYLQMNSLKPEDTAVYYGAKDAAESYRYGYWGQGTQVSVSS,low polyreactivity
3,QVQLVESGGGLVQAGGSLRLSCAASGRTFKYYAMGWYRQAPGKERELVAGITYRDGRTYYADSVKGRFTISRDNAKNTVYLQMNSLKPEDTEVYYCAAERYSSPYWGMDYWGQGTQVTVSS,high polyreactivity
4,QVQLVESGGGLVQAGGSLRLSCAASGRISARYVMGWYRQAPGKERELVAAISWSGDRTYYADSVKGRFTISRDNAKNTVYLQMNSLKPEDTAVYYCANGFYSRLAYGYGYWGQGTQVTVSS,high polyreactivity
5,QGQLVESGGGLVQAAGSLSLSCAASGRIYPYAMGWYRQAPGKERELVAAIPVNDGSTYYADSVTGRFTIARDNAMISVDLQMNSRKPEVSAVYYWKADYPIGWRNQYVQILYDYWGQGTQVTVSS,low polyreactivity
6,QVQLVESGGGLVQAGGSLRLSGAASGFIFAAYAMGWYRQAPGKERELVASISNGGGSTYYADSVKGRYTISRDNAKNTVYLQMNSQNPEVSAVYYCNARQYYAVTRKYYVRLDYWGQGTQVTVES,high polyreactivity
7,QVQLVESGGGLVQAGGSLRLSCAASGRIIGSNTMGWYRQAPGKEREFVATISSSGGSTYYADSVKGRFTISRDNAKNTVYLQMNSLKPEDTAVYYCNTRRRYPFRPYPEWRNYYWGHGTQVTVSS,high polyreactivity
8,QVQLVESGGGLVQAGGSLRISSAASGRIFVTNAMRWYRQAPGKERELLAAITRGGNTNYADSVKGRFTISRDNAKNTVYLQMNSLKPEDTAVYYCAADTSYDSVYGYFPGYYYWGQGTQVTVSS,low polyreactivity
9,KVQVVESGGGFVQAGGSLRLSCAASGSTFVINAMGCYRQAPGKERELVAAITWGGGRTYYADSVKGRFTISRDNEKNTVYFQMNSLKPEDTAVYYCAAVGSGWKGDYWGQGTQVNVSS,low polyreactivity
10,QVQLVESGGGLVQAGGRLRLSCAASGYTFSIYDMGWYRPAPGKERELVAAISWSGGSTYYADSVKGRFTISRDHAKNTVYLQMNSLKPEDTAVYYCAAKRHGSEVGRGRDYWGQGTQVTVSS,high polyreactivity
11,QVQLVDSGGGLVQAGGSLRLSCAASGRLFDRNAMGWYRQGPGKERELVARIDPGDDTNYSYSVTGRFTISRDNAKNTVYLQMNSLKPEDTAVYYCATDPDYVLYRTAYYEYDYWGKGTQVTVSS,low polyreactivity
12,QVQLVESGGGLVQAGGSLRLSCAASGITFGYYAMGWYRQAPGKERELVAAISSGGRTYYADSVKGRFTIARDNAKNTVYLQMNSLKPEDTGVYYCAVVARHPSRMDYWGQGTQVTVSS,high polyreactivity
13,QVQLVESGGGLVQAGGSLRLSCAASGFTFWLYAMGWYRQAPGKERELVAAISRNSVSTYYADSVKGRFTISRDNAKNTVYLQMNSLKPEDTAVYYCAVDQYATDDYWGQGTQVTVSS,high polyreactivity
14,QVQLVESGGGLVQAGGSLRLSCADSGRIFGYYTMGWSRQAPGKERELVAAITSSGSSTYYADSVKGRFTISRDNAKNTVYLQMNSLKPEDTAVYYCNARAYWRNEYWGQGTQVTVSS,high polyreactivity
15,QVQLVESGGGIVQAGGSLRLICAASGSIFSSNAMGWYRQAPGKERELVAAISYSGGGTYYADSVKGRFTISRDNEKNTVYLQMNSLKAEDTAVYYCAVGILFGHYDYLGQGTQVTVSS,high polyreactivity
16,QVQLVESGGGLDQAGGSLRLSCAASGSIFGFYAMGWSRQAPGKERELVAAITWRGGSTYYADSVKGRFTISRDNAKNTVYLQMTILKPEDTAVYYCAATSARRQTYNFAKYDYWGQGTQVTLSS,low polyreactivity
17,QVQLVESGGGLVQAGGSLRLSCAASGSILEIYAMGWYRPAPGKEREFVASISWDVSSTYYADSVKGRFTISRDNAKNTVYLQMNSLKPEDTAVYYCATSLVWGLYDWYYDLSAAFDYWGQGTQVTVSS,low polyreactivity
18,QVQLQESGGGLVQAGGSLRLSCAASGNISPQLYMGWYRQAQGKEREFVAAIAEGSTTYYAESVKGRFTISRDDAKNTVYLQINSLKSEDTAVYYCAARYENAESFYYWGQGSQVTVSS,high polyreactivity
19,QVQLVESGGGLVQAGGSLRLSCAASGRTSTGYAMGWYRPAPGKERELVAGIDKIGGRTYYADSVKGRFTISRDNEKNTVYLQMNSLKPEDTAVYYCNRVPRRSIRYDYWGQGTKVTVSS,high polyreactivity
20,QVQLVESGGGLVQAGGSLRLSCAASGYTFALYAMGWYRQAPGKERELVAAITDSDGSTYADSVKGRFTISRDNAKNTVYLQMNSLKPEDNAVYYCAGRDPHLQGSSYLSYLTMDYWGQGTQVTVSS,low polyreactivity
21,QVQLVESGVGLVQAGGSLRLSCAASGITFVGYAMGWSRQAPGKERELVASITRGGGSTYYADSVKGRFTISRDNAKNTVYLQMNSLKPEDTAVYYCAARSHSTYYYWGQGTQVTVSS,high polyreactivity
